B1: OR4K15 (parent)
chain: GUUAACGGUCAUAGGCCAUGGAAACUAGGAGCACCAUUUCGCUGCCAGUGAAGAAAUGAACAAAGAAAAUCUGGGCCAGGCAGGCAUCAAAAGAAAUAGUCUUGCGCUCAACCAGAAAGUCUGUAAUCAUUUUAAGGGUA

Variants of: B1
Test: self-cleavage, relative activity (ratio to wild type); higher = more cleavage; in vitro, sequencing; the parent is a self-cleaving ribozyme
Variant GUUAACGGUCAUAGGCCAUGGAAGCUAGGAGCACCAUUUCGCUGCCAGUGAAGAAAUGAACAAAGAAAAUCUGGGCCAGGCAGGCAUCAAAAGAAAUAGUCUUGCGCUCAACCAGAAAGUCUGUAAUCAUUUUUAGGGUA has a self-cleavage of 0.93. In the case of GUUAACGGUCAUAGGCCAUGGAAGCUAGGAGCACCAUUUCGCUGCCAGUGAAGAAAUGAACAAAGAAAAUCUGGGCCAGGCAGGCAUCAAAAGAAAUAGUCUUGUGCUCAACCAGAAAGUCUGUAAUCAUUUUAAGGGUA, the self-cleavage is reported as 0.26. GUUAACGGUCAUAGGCCAUGGAAGCUAGGAGCACCAUUUCGCUGCCAGUGAAGAAAUGAACAAAGAAAAUCUGGGCCAGGCAGGCAUCAAAAGAAAUAGUCUUGCGCUCAACCUGAAAGUCUGUAAUCAUUUUAAGGGUA showed a self-cleavage of 0.19. Variant GUUAACGGUCAUAGGCCAUGGAAGCUAGGAGCACCAUUUCGCUGCCAGUGAAGAAAUGAACAAAGAAAAUCUGGGCCAGGCAGGCAUCAAAAGAAAUAGUCUUGCGCUCAACCAGAGAGUCUGUAAUCAUUUUAAGGGUA has a self-cleavage of 1.45. Work on GUUAACGGUCAUAGGCCAUGGAAGCUAGGAGCACCAUUUCGCUGCCAGUGAAGAAAUGAACAAAGAAAAUCUGGGCCAGGCAGGCAUUAAAAGAAAUAGUCUUGCGCUCAACCAGAAAGUCUGUAAUCAUUUUAAGGGUA yielded a self-cleavage of 0.95. With GUUAACGGUCAUAGGCCAUGGAAGCUAAGAGCACCAUUUCGCUGCCAGUGAAGAAAUGAACAAAGAAAAUCUGGGCCAGGCAGGCAUCAAAAGAAAUAGUCUUGCGCUCAACCAGAAAGUCUGUAAUCAUUUUAAGGGUA the self-cleavage was 1.11. With GUUAACGGUCAUAGGCCAUGGAAGCUAGGAGCACCAUUUCGCUGCCAGUGAAGAAAUGAACAAAGAAAAUCUGGGCCAGGCAGGCAUCAAAAGAAAUAGUCUUGCGCUCAAUCAGAAAGUCUGUAAUCAUUUUAAGGGUA the self-cleavage was 0.02. Variant GUUAACGGUCAUAGGCCAUGGAAGCUAGGAGCACCAUUUCGCUGCCAGUGAAGAAAUGAACAAAGAAAAUCUGGGCUAGGCAGGCAUCAAAAGAAAUAGUCUUGCGCUCAACCAGAAAGUCUGUAAUCAUUUUAAGGGUA has a self-cleavage of 1.55. For GUUAACGGUCAUAGGCCAUGGAAGCUAGGAGCACCAUUUCGCUGCCAGUGAAGAAAUGAACAAAGAAAAUCUGGGCCAGGCAGGGAUCAAAAGAAAUAGUCUUGCGCUCAACCAGAAAGUCUGUAAUCAUUUUAAGGGUA, the self-cleavage was 0.97. With GUUAACGGUCAUAGGCCAUGGAAGCUAGGAGCACCAUUUCGCUGCCAGUGAAGAAAUGAACAAAGAAAAUCUGGGCCAGGCAGGUAUCAAAAGAAAUAGUCUUGCGCUCAACCAGAAAGUCUGUAAUCAUUUUAAGGGUA the self-cleavage was 0.95. Work on GUUAACGGUCAUAGGCCAUGGAAGCUAGGAGCACCAUUUCGCUGCCAGUGAAGAAAUGAACAAAGAAAAUCUGGGCCAGGCAGGCAUCAAAAGAAAUAGUCUUGCGCUCAACCAGAAUGUCUGUAAUCAUUUUAAGGGUA yielded a self-cleavage of 0.51. Work on GUUAACGGUCAUAGGCCAUGGAAGCUAGGAGCACCAUUUCGCUGCCAGUGAAGAAAUGAACAAAGAAAAUCUGGGCCAGGCAGGCAUCAAAAGAAAUAGUCUUGCGCUCAACCAGAAGGUCUGUAAUCAUUUUAAGGGUA yielded a self-cleavage of 1.01. In the case of GUUAACGGUCAUAGGCCAUGGAAGCUAGGAGCACCAUUUCGCUGCCAGUGAAGAAAUGAACAAAGAAAAUCUGGGCCAGGCAGGCAUCAAAAGAAAUAGUCUUGCGCUCAACCAGGAAGUCUGUAAUCAUUUUAAGGGUA, the self-cleavage is reported as 0.61. Work on GUUAACGGUCAUAGGCCAUGGAAGCUAGGAGCACCAUUUCGCUGCCAGUGAAGAAAUGAACAAAGAAAAUCUGGGCCAGGCAGGCAUCAAAAGAAAUUGUCUUGCGCUCAACCAGAAAGUCUGUAAUCAUUUUAAGGGUA yielded a self-cleavage of 1.74. GUUAACGGUCAUAGGCCAUGGAAGCUAGGAGCACCAUUUCGCUGCCAGUGAAGAAAUGAACAAAGAAAAUCUGGGCCAGGCAGGCAUCAAAAGAAAUGGUCUUGCGCUCAACCAGAAAGUCUGUAAUCAUUUUAAGGGUA showed a self-cleavage of 0.51. Variant GUUAACGGUCAUAGGCCAUGGAAGCUAGGAGCACCAUUUCGCUGCCAGUGAAGAAAUGAACAAAGAAAAUCUGGGCCAGGCAGGCAUCAAAAGAAAUAGUCUUGCGCUCUACCAGAAAGUCUGUAAUCAUUUUAAGGGUA has a self-cleavage of 0.99. GUUAACGGUCAUAGGCCAUGGAAGCUAGGAGCACCAUUUCACUGCCAGUGAAGAAAUGAACAAAGAAAAUCUGGGCCAGGCAGGCAUCAAAAGAAAUAGUCUUGCGCUCAACCAGAAAGUCUGUAAUCAUUUUAAGGGUA showed a self-cleavage of 1.45. Variant GUUAACGGUCAUAGGCCAUGGAAGCUAGGAGCACCAUUUCGCUGCCAGUGAAGAAAUGAACAAAGAAAAUCUGGGCCAGGCAGGCAUCAAAAGAAAUAGUCUUGCGCUCAACCAGAAAGUCUGUGAUCAUUUUAAGGGUA has a self-cleavage of 0.43. Work on GUUAACGGUCAUAGGCCAUGGAAGCUAGGAGCACCAUUUCGCUGCCAGUGAAGAAAUGAACAAAGAAAAUCUGGGCCAGGCAGGCAUCAAAAGAAAUAGUCUUGCGCUCACCCAGAAAGUCUGUAAUCAUUUUAAGGGUA yielded a self-cleavage of 0.02. Work on GUUAACGGUCAUAGGCCAUGGAAGCUAGGAGCACCAUUUCGCUGCCAGUGAAGAAAUGAACAAAGAAAAUCUGGGCCAGGCAGGCAUCAAAAGAAAUAGUCUUGCGCUCAUCCAGAAAGUCUGUAAUCAUUUUAAGGGUA yielded a self-cleavage of 0.19. For GUUAACGGUCAUAGGCCAUGGAAGCUAGGAGCACCAUUUCGCUGCCAGUGAAGAAAUGAACAAAGAAAAUCUGGGCCAGGCAGGCAUCAAAAGAAAUAGUCUUGCGCUCAACCAGAAAGUCUGUAUUCAUUUUAAGGGUA, the self-cleavage was 0.98.

Reference: the RNAGym collection of RNA variant scans (doi:10.7554/elife.90254)
